For one substance, percent of the total population of SHP-2 recruited into a complex results are on record in patent US20030215899A1, “Reversible oxidation of protein tyrosine phosphatases” (CEPTYR, Inc., priority 2002, published 2003).

The target in this experiment is PDGFR (ligand-activated, tyrosine phosphorylated) (rat (endogenous protein of Rat-1 fibroblasts)) (UniProt Q05030). Description: preliminary studies in ligand-stimulated Rat-1 cells; method not stated.
PDGFR (ligand-activated, tyrosine phosphorylated) (rat (endogenous protein of Rat-1 fibroblasts)), sequence (Q05030 32-1097 limits assumed): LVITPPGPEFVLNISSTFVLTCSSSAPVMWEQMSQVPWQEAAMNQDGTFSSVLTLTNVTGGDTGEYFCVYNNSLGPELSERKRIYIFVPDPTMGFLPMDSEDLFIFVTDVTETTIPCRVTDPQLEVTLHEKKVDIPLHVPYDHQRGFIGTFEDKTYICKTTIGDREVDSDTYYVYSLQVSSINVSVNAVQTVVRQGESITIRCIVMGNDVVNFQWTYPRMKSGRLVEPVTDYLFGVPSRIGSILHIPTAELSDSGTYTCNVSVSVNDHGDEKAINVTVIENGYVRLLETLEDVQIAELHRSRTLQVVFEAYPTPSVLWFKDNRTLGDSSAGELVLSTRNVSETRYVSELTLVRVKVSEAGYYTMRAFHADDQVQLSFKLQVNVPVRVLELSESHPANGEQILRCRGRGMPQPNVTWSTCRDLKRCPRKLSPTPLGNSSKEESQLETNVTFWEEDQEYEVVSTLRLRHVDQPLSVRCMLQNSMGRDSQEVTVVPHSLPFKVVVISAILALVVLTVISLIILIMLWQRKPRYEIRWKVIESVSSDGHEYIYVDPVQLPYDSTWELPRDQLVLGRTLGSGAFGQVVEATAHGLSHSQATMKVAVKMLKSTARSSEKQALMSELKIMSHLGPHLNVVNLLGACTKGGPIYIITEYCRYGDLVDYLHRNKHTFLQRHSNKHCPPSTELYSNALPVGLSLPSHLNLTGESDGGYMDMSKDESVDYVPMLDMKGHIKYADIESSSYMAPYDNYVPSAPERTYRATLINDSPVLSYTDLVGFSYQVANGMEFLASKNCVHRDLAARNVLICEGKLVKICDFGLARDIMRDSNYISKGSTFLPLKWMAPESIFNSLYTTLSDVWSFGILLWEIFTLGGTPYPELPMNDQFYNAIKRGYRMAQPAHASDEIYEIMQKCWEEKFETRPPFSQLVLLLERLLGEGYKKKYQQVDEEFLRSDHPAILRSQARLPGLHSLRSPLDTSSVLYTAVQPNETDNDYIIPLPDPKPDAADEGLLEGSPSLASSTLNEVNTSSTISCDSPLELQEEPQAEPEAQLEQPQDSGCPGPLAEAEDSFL

In turn, “SHP-2 (from UniProt P41499 2-593) (enzyme)” came in with a percent of the total population of SHP-2 recruited into a complex of 10%.
